Assay results reported in the RNAGym collection of RNA variant scans (doi:10.7554/elife.80360).

B1: Twister Ribozyme (parent)
chain: AACACUGCCAAUGCCGGUCCCAAGCCCGGAUAAAAGUGGAGGGGGCGG

Variants of: B1
Test: self-cleavage, relative activity (ratio to wild type); higher = more cleavage; co-transcriptional

Variant | self-cleavage
U37A G39C | 0.121
A34G A35G | 0.526
A34G A35U | 0.92
A34C G38A | 0.232
A34C G38C | 0.157
G39A G41C | 0.126
G36C G44C | 0.402
G36C G44U | 0.512
A34G G48U | 0.876
G39A C46G | 0.537
A35U U37A | 0.834
A34G G45C | 0.274
A33G G43U | 0.238
A33G U37G | 0.601
U37C C46U | 0.627
A35G G42U | 0.133
A35G G42A | 0.115
A35G G42C | 0.141
U37G G43C | 0.0693
G38C G42A | 0.229
G36U G43U | 0.15
G38C G39C | 0.127
G38C G39U | 0.164
G36U G38C | 0.286

Variant | self-cleavage
G36A G45A | 0.714
G36A G45U | 0.579
G36A G48A | 0.639
G38U G39U | 0.0892
U37G G44A | 0.703
U37G G44C | 0.669
G38C G48U | 1.06
A35G A40U | 0.107
A35G A40G | 0.118
A35C C46G | 0.828
A35C C46A | 0.98
A35C C46U | 0.879
A35U G48A | 1.02
A34C G45U | 0.167
A34C G45C | 0.0937
A34C G45A | 0.144
A33C U37C | 0.354
A33C U37G | 0.626
G36A A40C | 0.115
G38C G44U | 1.02
G38C G44C | 0.853
G38C G44A | 0.826
A34G U37A | 0.444
G38A G43U | 0.195

Variant | self-cleavage
G36C G48A | 0.422
G36C G48C | 0.657
A35U G42U | 0.374
U37C G43U | 0.106
U37C G43A | 0.142
U37C G43C | 0.102
G38U G47U | 0.813
G38U G47C | 0.228
A34U G48C | 0.855
A34U G36A | 0.157
G36C G45A | 0.37
A35G G39U | 0.18
A35G G39A | 0.374
A33U A35U | 0.926
A33U A35C | 0.961
A33U A35G | 0.8
A35G G47C | 0.562
A35G G47U | 0.81
A35U G38C | 0.973
G38A G39C | 0.175
G38A G39A | 0.4
G38A G39U | 0.142
A33C G42U | 0.188
A33C G42C | 0.19

Variant | self-cleavage
G38A G41A | 0.28
A34C C46G | 0.154
A34C C46U | 0.251
A34U G44A | 0.893
A34U G44C | 0.766
A34G G42A | 0.133
A34G G42C | 0.185
G36A G47C | 0.234
U37G C46A | 0.619
U37C G38U | 0.516
U37C G38C | 0.742
G36C G43C | 0.0794
A35G U37C | 0.056
A35G U37G | 0.585
A33G G39A | 0.362
A33G G39U | 0.222
A33G G39C | 0.118
A35C G45A | 0.807
A35C G45U | 0.855
A35C G44C | 0.943
A34G A40U | 0.122
A34G A40G | 0.111
U37C G39C | 0.0703
U37C G39A | 0.219

Variant | self-cleavage
U37G G38A | 0.774
U37G G38U | 0.127
A33U A40U | 0.157
A33U A40C | 0.234
A35C G39C | 0.153
A35C G39A | 0.221
A34U G45U | 0.59
G38C G45A | 0.736
A33C G47A | 0.782
A33C G47U | 0.865
A35G G48A | 0.913
A35G G48U | 0.882
A35G G48C | 1.04
A33U G44A | 0.907
A33U G44C | 0.928
G36A G38C | 0.327
A35G C46A | 0.747
A33G G36A | 0.509
A33G G36U | 0.256
G38C C46A | 0.791
G38C C46G | 0.801
U37A G47U | 0.702
U37A G47C | 0.292
A33U G36U | 0.132

Variant | self-cleavage
A33U G36A | 0.282
A34U G43A | 0.209
A34C G43C | 0.103
A34C G43A | 0.13
A34C G43U | 0.14
A35U A40C | 0.195
U37C G41C | 0.087
U37C G41U | 0.126
U37C G41A | 0.134
U37A G48U | 0.811
A33C G48A | 0.867
A33C G48C | 1.1
A34C G48U | 0.21
A34C G48C | 0.2
A33G G41A | 0.453
A33G G41U | 0.381
G39A G47U | 0.238
G39A G47C | 0.137
G36A G41U | 0.131
G38U G45U | 0.707
G38U G45C | 0.407
G38U G45A | 0.827
A35G G38U | 0.667
A35G G38A | 0.199

Variant | self-cleavage
G39A G48C | 0.532
U37G A40C | 0.163
U37G A40U | 0.128
G36C G47C | 0.171
G36C G47U | 0.376
A33C G43U | 0.297
A33C G43C | 0.107
G36C G42U | 0.145
G36A C46A | 0.582
G36A U37G | 0.32
G36A U37A | 0.166
A34G G39U | 0.102
A34G G39C | 0.109
G38A G45C | 0.65
G38A G45U | 0.737
G36C G38U | 0.116
A35C U37G | 0.703
A33U G48A | 0.889
A33U G48C | 1.08
A34G G36U | 0.105
A34G G36A | 0.164
A33G G38C | 0.878
A33G G38A | 0.709
